In the experiment the target is T1, Human ST2 (human, UniProt Q01638 19-328, limits assumed).
T1 construct: also called human ST2 protein; Interleukin 1 receptor-like 1
T1 sequence (looked up): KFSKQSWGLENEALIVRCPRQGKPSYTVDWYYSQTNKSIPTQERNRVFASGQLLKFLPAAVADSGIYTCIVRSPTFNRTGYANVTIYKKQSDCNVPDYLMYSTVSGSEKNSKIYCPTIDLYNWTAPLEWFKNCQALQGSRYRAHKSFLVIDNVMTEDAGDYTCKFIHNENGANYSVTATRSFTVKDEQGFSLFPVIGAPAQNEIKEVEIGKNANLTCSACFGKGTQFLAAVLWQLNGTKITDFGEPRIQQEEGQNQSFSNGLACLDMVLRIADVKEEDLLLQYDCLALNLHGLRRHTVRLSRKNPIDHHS
Briefly: SPR (Carterra), antibody immobilized, ST2 analyte. The protocol: Binding of the reformatted human ST2 antibodies to the human and mouse ST2 proteins was evaluated by surface plasmon resonance (SPR), using a high throughput antibody screening and characterization platform from Carterra (Salt Lake City, Utah).

B1: Human ST2 IgG1 Antibody 25 (antibody, V domains shown)
VH: QVQLVQSGAEVKKPGSSVKVSCKASGGTFSNYAISWVRQAPGQGLEWMGWISAYNGNTNYAQKFQGRVTMTRDTSTSTVYMELSSLRSEDTAVYYCARSTNALDYWGQGTLVTVSS
VL: DIQMTQSPSSLSASVGDRVTITCRASQGIRSNLDWYQQKPGKAPKLLISIVSNLGSGVPSRFSGSGSGTDFTLTISSLQPEDFATYYCLQHNSNPPTFGGGTKVEIKR
notes: IgG1; also called ST2 Antibody 25
For the molecule B1, the equilibrium dissociation constant (Kd) (as a rule, a measure of binding affinity in units of concentration) is 193 nM; the koff – broadly, a measure of how fast the partners let go of each other – was 0.03 s⁻¹; the kon (commonly the second-order rate constant of association) stood at 150000 M⁻¹ s⁻¹.

B2: Human ST2 IgG1 Antibody 20 (antibody, V domains shown)
VH: EVQLLESGAEVKKPGSSVKVSCKASGGTFSSYAISWVRQAPGQGLEWMGGIIPIFGTANYAQKFQGRVTITADESTSTAYMELSSLRSEDTAVYYCASGFYSNDLYYYYYMDVWGKGTTVTVSS
VL: DIQMTQSPSSLSASVGDRVTITCRASQSISSWLAWYQQKPGKAPKLLIYDASNLKTGVPSRFSGSGSGTDFTLTISSLQPEDFATYYCQQTYAIPLTFGGGTKVEIKR
notes: IgG1; also called ST2 Antibody 20
As to B2, binding was characterised by a dissociation constant (Kd) of 81 nM, the koff came out at 0.065 s⁻¹ and the kon was found to be 810000 M⁻¹ s⁻¹.

B3: Human ST2 IgG1 Antibody 29 (antibody, V domains shown)
VH: QVQLVQSGAEVKKPGASVKVSCKASGGTFTGYFIHWVRQAPGQGLEWMGWMNPNSGNTGYAQKFQGRVTMTRDTSTSTVYMELSSLRSEDTAMYYCAREGQGVVPVDYWGQGTLVTVSS
VL: DIQMTQSPSSLSASVGDRVTITCRASQSISSWLAWYQQKPGKAPKLLIYDATNLETGVPSRFSGSGSGTDFTLTISSLQPEDFATYYCLQDYNYPLTFGQSTKVEIKR
notes: IgG1; also called ST2 Antibody 29
B3 yielded a Kd of 480 nM, a koff of 0.0065 s⁻¹ and an on-rate (kon) of 14000 M⁻¹ s⁻¹.

B4: Human ST2 IgG1 Antibody 21 (antibody, V domains shown)
VH: QVQLVQSGAEVKKPGASVKVSCKASGYTFSNHYMHWVRQAPGQGLEWMGWVNPTSGNTGYAQKFQGRVTMTRDTSTSTVYMELSSLRSEDTAVYYCARDLGVTYFDLWGRGTLVTVSS
VL: DIQMTQSPSSLSASVGDRVTITCRASQGISSWLAWYQQKPGKAPKLLIYEASHLETGVPSRFSGSGSGTDFTLTISSLQPEDFATYYCLQDYNYPLTFGGGTKVEIKR
notes: IgG1; also called ST2 Antibody 21
B4: binding was characterised by a dissociation constant (Kd) of 805 nM, the off-rate constant (koff) was 0.017 s⁻¹ and the on-rate (kon) worked out at 21000 M⁻¹ s⁻¹.

B5: Human ST2 IgG1 Antibody 26 (antibody, V domains shown)
VH: QVQLVQSGAEVKKPGSSVKVSCKASGYTFSDYYMHWVRQAPGQGLEWMGGILPVFGTATYAQKFQGRVTITADESTSTAYMELSSLRSEDTAVYYCARGFGYFDYWGQGTLVTVSS
VL: not shown
notes: IgG1; also called ST2 Antibody 26
In the case of B5, the Kd was determined as 264 nM, the koff stood at 0.14 s⁻¹ and the kon is 530000 M⁻¹ s⁻¹.

B6: Human ST2 IgG1 Antibody 28 (antibody, V domains shown)
VH: QVQLVQSGAEVKKPGSSVKVSCKASGGTFGNYGINWVRQAPGQGLEWMGGIIPVFGTTNYAQKFQGRVTITADESTSTAYMELSSLRSEDTAVYYCARGLRYYYGMDVWGQGTTVTVSS
VL: DIVMTQSPLSLPVTPGEPASISCRSSQSLLHSNGYNYLDWYLQKPGQSPQLLIYGASTLQSGVPDRFSGSGSGTDFTLKISRVEAEDVGVYYCMQALQNPLTFGGGTKVEIKR
notes: IgG1; also called ST2 Antibody 28
In turn, B6 yielded a Kd of 426 nM, a koff of 0.066 s⁻¹ and an on-rate constant (kon) of 160000 M⁻¹ s⁻¹.

B7: Human ST2 IgG1 Antibody 30 (antibody, V domains shown)
VH: QVQLVQSGAEVKKPGSSVKVSCKASGYTFTTYGITWVRQAPGQGLEWMGGIIPIFGTANYAQKFQGRVTITADESTSTAYMELSSLRSEDTAVYYCAKLSGSSGSWDYYYYYGMDVWGQGTLVTVSS
VL: DIVMTQSPLSLPVTPGEPASISCRSSQSLLHSNGYNYLDWYLQKPGQSPQLLIYAASNLQSGVPDRFSGSGSGTDFTLKISRVEAEDVGVYYCMQALQTPITFGQSTRLEIKR
notes: IgG1; also called ST2 Antibody 30
On to B7, for which binding was put at a Kd of 155 nM, the off-rate (koff) was found to be 0.029 s⁻¹ and the on-rate (kon) turned out to be 190000 M⁻¹ s⁻¹.

B8: Human ST2 IgG1 Antibody 19 (antibody, V domains shown)
VH: EVQLLESGGGLVQPGGSLRLSCAASGFSFSHAWMSWVRQAPGKGLEWVSVIHSGGSTFYADSVKGRFTISRDNSKNTLYLQMNSLRAEDTAVYYCARIGKGGGFDYWGQGTLVTVSS
VL: DIQMTQSPSSLSASVGDRVTITCRASQDIGSWLAWYQQKPGKAPKLLIYAASSLQSGVPSRFSGSGSGTDFTLTISSLQPEDFATYYCQQSYSTPPTFGQGTKVEIKR
notes: IgG1; also called ST2 Antibody 19
B8 showed a Kd of 113 nM, a koff of 0.062 s⁻¹ and a kon of 550000 M⁻¹ s⁻¹.

B9: Human ST2 IgG1 Antibody 31 (antibody, V domains shown)
VH: QVQLVQSGAEVKKPGSSVKVSCKASGGTFSTYAFSWVRQAPGQGLEYMGGIIPMFGTANYAQKFQGRVTITADESTSTAYMELSSLRSEDTAVYYCAGERGYGSLDYWGQGTLVTVSS
VL: DIQMTQSPSSLSASVGDRVTITCRASQGIGSWLAWYQQKPGKAPKLLIYAASSLQSGVPSRFSGSGSGTDFTLTISSLQPEDFATYYCQQSYTFPYTFGQGTKLEIKR
notes: IgG1; also called ST2 Antibody 31
On to B9, for which the dissociation constant (Kd) turned out to be 274 nM, the dissociation rate constant (koff) was found to be 0.12 s⁻¹ and the kon is 430000 M⁻¹ s⁻¹.

B10: Human ST2 IgG1 Antibody 32 (antibody, V domains shown)
VH: EVQLLESGGGLVQPGGSLRLSCAASGFTFSNSDMNWVRQAPGKGLEWVSFISSSSGYTYYADSVKGRFTISRDNSKNTLYLQMNSLRAEDTAVYYCARANNNWNFYFDYWGQGTLVTVSS
VL: DIQMTQSPSSLSASVGDRVTITCRASQSINNWLAWYQQKPGKAPKLLIYSASSLQSGVPSRFSGSGSGTDFTLTISSLQPEDFATYYCQQSYDTPITFGQGTKVEIKR
notes: IgG1; also called ST2 Antibody 32
B10 came in with a dissociation constant Kd of 252 nM, a dissociation rate constant (koff) of 0.061 s⁻¹ and a kon of 240000 M⁻¹ s⁻¹.

B11: Human ST2 IgG1 Antibody 27 (antibody, V domains shown)
VH: QVQLVQSGAEVKKPGASVKVSCKASGYTFTGQYMHWVRQAPGQGLEWMGIINPSGGSTSYAQKFQGRVTMTRDTSTSTVYMELSSLRSEDTAVYYCAGSYYPYYYYGMDVWGQGTTVTVSS
VL: DIQMTQSPSSLSASVGDRVTITCRASQNIGYFLHWYQQKPGKAPKLLIYAASSLQSGVPSRFSGSGSGTDFTLTISSLQPEDFATYYCQQSYSPPLTFGGGTKVEIKR
notes: IgG1; also called ST2 Antibody 27
Molecule B11 showed a dissociation constant (Kd) of 106 nM, a koff of 0.048 s⁻¹ and an on-rate (kon) of 450000 M⁻¹ s⁻¹.

B12: Human ST2 IgG1 Antibody 23 (antibody, V domains shown)
VH: EVQLLESGGGLVKPGGSLRLSCAASGFTFSSYWMHWVRQAPGKGLEWVSSISSRSSYIYYADSVKGRFTISRDDSKNTLYLQMNSLKTEDTAVYYCAREGNGMDVWGQGTTVTVSS
VL: DIQMTQSPSSLSASVGDRVTITCQASQDIGSYLNWYQQKPGKAPKLLIYAASSLQSGVPSRFSGSGSGTDFTLTISSLQPEDFATYYCLQSYSTPFTFGGGTKVEIKR
notes: IgG1; also called ST2 Antibody 23
Take B12: the Kd is 688 nM, the off-rate (koff) came to 0.1 s⁻¹ and the on-rate (kon) came out at 150000 M⁻¹ s⁻¹.

B13: Human ST2 IgG1 Antibody 22 (antibody, V domains shown)
VH: EVQLLESGGGLVQPGGSLRLSCAASGFKFRTFWMNWVRQAPGKGLEWVSVISNGGDATHYADSVKGRFTISRDNSKNTLYLQMNSLRAEDTAVYYCARVDCSGGSCYLGYWGQGTLVTVSS
VL: DIQMTQSPSSLSASVGDRVTITCRASESIGRYLNWYQQKPGKAPKLLIYGTSNLESGVPSRFSGSGSGTDFTLTISSLQPEDFATYYCQQSYSTPPTFGQGTKVEIKR
notes: IgG1; also called ST2 Antibody 22
The molecule B13 had a Kd of 90 nM, an off-rate constant (koff) of 0.048 s⁻¹ and an on-rate (kon) of 530000 M⁻¹ s⁻¹.

B14: Human ST2 IgG1 Antibody 24 (antibody, V domains shown)
VH: QVQLVQSGAEVKKPGSSVKVSCKASGGTFSSYAISWVRQAPGQGLEWMGGIIPIFGTANYAQKFQGRVTITADESTSTAYMELSSLRSEDTAVYYCAKTPLGRGYGLFDYWGQGTLVTVSS
VL: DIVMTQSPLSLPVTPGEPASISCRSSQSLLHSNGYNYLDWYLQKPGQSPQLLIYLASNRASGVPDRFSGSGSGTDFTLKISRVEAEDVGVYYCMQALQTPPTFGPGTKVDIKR
notes: IgG1; also called ST2 Antibody 24
As for B14, binding was characterised by a dissociation constant (Kd) of 1200 nM, the off-rate (koff) was 0.055 s⁻¹ and the kon turned out to be 45000 M⁻¹ s⁻¹.
